# Reference: US20230295310A1 (ABCELLERA BIOLOGICS, published 2023)
# What was measured:
# [1] = target: T1, cynomolgus monkey CD3 expressed on cyno primary T cells (cynomolgus monkey, UniProt Q95LI5 22-198; Q95LI8 22-171; Q95LI7 23-181); assay: flow cytometry, cyno primary T cells
# T1 construct: whole, on cells; CD3 complex on purified cynomolgus monkey CD3 pan T cells; also called cyno CD3
# Summary of the method: (§1)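 Flow cytometric binding was measured after cells were incubated with antibody (25 nM, PBS+2% FBS) at 4° C for 30 minutes. Signals were normalized to isotype to yield FOI, with ≥10 scored positive.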
# [2] = target: T2, human CD3 expressed on cells (Jurkat cells; human primary T cells) (human, UniProt P07766 23-207; P04234 22-171; P09693 23-182); assay: flow cytometry, Jurkat cells
# T2 construct: whole, on cells
# Procedure: (§2) Purified antibodies were confirmed to bind CD3 expressed on cells using the CytoFLEX S or LX flow cytometers (Beckman Coulter). Antibodies were diluted to 25 nM in FACS buffer (PBS+2% FBS) and were incubated with CD3-expressing cells for 30 minutes at 4° C. […] The median fluorescence intensity of the binding signal for each antibody was normalized to the isotype control to obtain a fold over isotype value. An antibody with a fold over isotype (FOI) of ≥10 was considered to be positive for binding.
# [3] = target: T3, cynomolgus monkey CD3 (cynomolgus monkey, UniProt Q95LI5 22-198; Q95LI8 22-171; Q95LI7 23-181); assay: flow cytometry, cyno primary T cells
# T3 construct: whole, on cells; CD3 on purified cynomolgus monkey CD3 pan T cells; also called cyno CD3; CD3 on cyno primary T cells
# Summary of the method: as §1
# [4] = target: T4, human CD3 (human, UniProt P07766 23-207; P04234 22-171; P09693 23-182); assay: flow cytometry, human primary T cells, 25 nM antibody
# T4 construct: whole, on cells; also called CD3 on Jurkat cells; CD3 on human primary T cells
# Procedure: as §2
# [5] = target: T4, human CD3; assay: flow cytometry, Jurkat cells, 25 nM antibody
# Procedure: as §2
# [6] = target: T4, human CD3; assay: flow cytometry, Jurkat cells
# Procedure: as §2
# T2 sequence (P07766 23-207, chain 1 of 3): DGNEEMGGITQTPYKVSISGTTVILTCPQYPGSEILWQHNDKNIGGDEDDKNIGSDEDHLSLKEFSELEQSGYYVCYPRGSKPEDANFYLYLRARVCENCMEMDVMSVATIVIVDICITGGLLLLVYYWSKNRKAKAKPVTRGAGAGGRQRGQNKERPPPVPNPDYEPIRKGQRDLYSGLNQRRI
# T2 sequence (P04234 22-171, chain 2 of 3): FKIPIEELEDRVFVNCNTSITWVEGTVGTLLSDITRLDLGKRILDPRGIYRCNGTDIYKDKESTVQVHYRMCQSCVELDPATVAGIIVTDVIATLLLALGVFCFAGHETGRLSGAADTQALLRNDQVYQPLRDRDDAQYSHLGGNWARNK
# T2 sequence (P09693 23-182, chain 3 of 3): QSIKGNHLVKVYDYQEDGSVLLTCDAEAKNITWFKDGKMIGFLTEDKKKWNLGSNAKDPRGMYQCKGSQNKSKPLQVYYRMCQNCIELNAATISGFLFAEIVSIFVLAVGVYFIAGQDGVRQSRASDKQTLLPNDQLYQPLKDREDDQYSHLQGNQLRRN
# T4 sequence (P07766 23-207, chain 1 of 3): as the sequence (P07766 23-207, chain 1 of 3) above
# T4 sequence (P04234 22-171, chain 2 of 3): as the sequence (P04234 22-171, chain 2 of 3) above
# T4 sequence (P09693 23-182, chain 3 of 3): as the sequence (P09693 23-182, chain 3 of 3) above
# T1 sequence (Q95LI5 22-198, chain 1 of 3): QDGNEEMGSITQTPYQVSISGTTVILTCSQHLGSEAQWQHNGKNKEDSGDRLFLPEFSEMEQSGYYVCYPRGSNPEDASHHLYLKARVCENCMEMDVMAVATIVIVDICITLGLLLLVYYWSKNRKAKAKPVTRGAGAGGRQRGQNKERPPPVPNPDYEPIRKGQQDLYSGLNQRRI
# T1 sequence (Q95LI8 22-171, chain 2 of 3): as the sequence (P04234 22-171, chain 2 of 3) above, with I5V, N15K, I20V, S32T, D33N, I34N, T64A, S74N, V83L, H141R counted along it
# T1 sequence (Q95LI7 23-181, chain 3 of 3): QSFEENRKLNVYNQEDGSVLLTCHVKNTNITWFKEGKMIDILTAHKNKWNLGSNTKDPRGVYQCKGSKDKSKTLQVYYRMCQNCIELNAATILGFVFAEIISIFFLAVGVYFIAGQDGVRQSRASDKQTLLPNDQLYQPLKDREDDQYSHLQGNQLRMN
# T3 sequence (Q95LI5 22-198, chain 1 of 3): as the sequence (Q95LI5 22-198, chain 1 of 3) above
# T3 sequence (Q95LI8 22-171, chain 2 of 3): as the sequence (P04234 22-171, chain 2 of 3) above, with I5V, N15K, I20V, S32T, D33N, I34N, T64A, S74N, V83L, H141R counted along it
# T3 sequence (Q95LI7 23-181, chain 3 of 3): as the sequence (Q95LI7 23-181, chain 3 of 3) above
Human primary T Cell Binding (FOI) [4] [FOI],Jurkat Cell Binding (FOI) [5] [FOI],Binder,binding result [1],binding result [2],binding result [3],binding result [6]
,,"mAb 280 (antibody, V domains shown, VH/VL only) VH: QVQLVQSGAEVKKPGASVRVSCKASGYTFTGYYMHWVRQAPGQGLEWMGWIYPNSGRTNYAQKFQGRVTMTRDTSISTAYMELTRLISDDTAVYYCARLWDLYFDYWGQGTLVTVSS VL: not shown",no binding (tested: FOI <10 (FOI >=10 = positive); 25 nM),no binding (tested: FOI <10 (FOI >=10 = positive); 25 nM),,
,,"mAb 281 (antibody, V domains shown, VH/VL only) VH: QVQLVQSGAEVKKPGASVRVSCKASGYTFTGYYMHWVRQAPGQGLEWMGWIYPNSGRTNYAQKFQGRVTMTRDTSISTAYMELTRLISDDTAVYYCARLWDLYFDYWGQGTLVTVSS VL: DIVMTQSPLSLPVTPGEPASISCRSSQSLLHYNGNNYLDWYLQKPGQSPHLLIYLGSNRASGVPDRFSGSGSGTDFTLKIIRVEAEDVGIYYCMQGLQSPYTFGQGTKLEIK",no binding (tested: FOI <10 (FOI >=10 = positive); 25 nM),no binding (tested: FOI <10 (FOI >=10 = positive); 25 nM),,
255,227,"mAb 292 (antibody, V domains shown, VH and VL only) VH: EVQLLESGGGLVQPGGSRRLSCAASGFTFSTYAMSWVRQAPGKGLEWVSVINGRGDDTNYADSVKGRFTISRDNSKNILFLQMNSLRAEDTAVYYCAKKYSYYYYYMDVWGKGTTVTVSS VL: SYELTQPLSVSVALGQTARITCGGNNIGSKDVHWYQQKPGQAPVLVIYRDSNRPSGIPERFSGSNSGNTATLTISRAQAGDEADYYCQVWDSRTAVFGGGTQLTAL",,,no binding (tested: FOI ≥10 = positive; 25 nM),
219,216,"mAb 306 (antibody, V domains shown, VH and VL only) VH: EVQLLESGGGLVQPGGSLRLSCAASGFTFNSYAMSWVRQAPGRGLEWVSAISGRKSTTYYADSVKGRFTISRDNSKNTLYLQMNSLRAEDTAVYYCAKLWNYYYYYMDVWGKGTTVTVSS VL: SYELTQPLSVSVALGQTARITCGGNNIGSKDVHWYQQKPGQAPVLVIYRDSNRPSGIPERFSGSNSGNTATLTISRAQAGDEADYYCQVWDSSTAVFGGGTQLTAL",,,no binding (tested: FOI ≥10 = positive; 25 nM),
,,"mAb 289 (antibody, V domains shown, VH/VL only) VH: EVQLLESGGGLVQPGGSRRLSCAASGFTFSSFAMSWVRQAPGKGLEWVSVISSRGDNTNYADSVKGRFTISRDNSKNTLYLQMNSLRAEDTAVYYCAKKYSYYYYYMDVWGKGTTVTVSS VL: SYELTQPLSVSVALGQTARITCGGNNIGSKNVHWHQQKPGQAPVLVIYRESNRPSGIPERFSGSNSGNTATLTSSRAQAGDEADYYCQVWDSSTAVFGGGTQLTAL",no binding (tested: FOI <10 (FOI >=10 = positive); 25 nM),no binding (tested: FOI <10 (FOI >=10 = positive); 25 nM),,
211,211,"mAb 318 (antibody, V domains shown, VH and VL only) VH: EGQLLESGGGLVQPGGSLRLSCAASGFTFSRYAMSWIRQAPGKGLEWVSVIDGSGGDKNYADSVKGRFTISRDNSKNSLYLLMNGLRVEDTAIYFCAKKFSYYYYYMDVWGKGTSVTVSS VL: SYELTQPLSVSVALGQTARITCGGNNIGGKDVHWYQQKPGQAPVLVIYRDSNRPSGIPERFSGSNSGNTATLTISRAQAGDEADYYCQVWDSRTAVFGGGTQLTAL",,,no binding (tested: FOI ≥10 = positive; 25 nM),
226,234,"mAb 304 (antibody, V domains shown, VH and VL only) VH: EVQLLESGGGLVQPGGSRRLSCAASGFTFSSYAMSWVRQAPGKGLEWVSVISGRGDNTNYADSVKGRFTISRENSKNILYLQMNSLRAEDTAVYYCAKKYSYYYYYMDVWGKGTTVTVSS VL: SYELTQPLSVSVALGQTARITCGGNNIGSKDVHWYQQKPGQAPVLVIYRDSNRPSGIPERFSGSNSGNTATLTISRAQAGDEADYYCQVWDSRTAVFGGGTQLTAL",,,no binding (tested: FOI ≥10 = positive; 25 nM),
211,220,"mAb 297 (antibody, V domains shown, VH and VL only) VH: EVQLLESGGGLVQPGGSLRLSCAASGFTFSSYAMNWVRQAPGKGLEWVSIISGGRRDDITYYAASVKGRFTISRDNSKNTLYLQMNSLRAEDTAVYYCAKMYNYYYYYIDVWGKGTTVTVSS VL: SYELTQPLSVSVALGQTAKITCGGNNIGSKDVHWYQQKPGQAPVLVIYRDSNRPSGIPERFSGSNSGNTATLTISRAQAGDEADYYCQVWDSNTAVFGGGTQLTAL",,,no binding (tested: FOI ≥10 = positive; 25 nM),
,,"mAb 294 (antibody, V domains shown, VH and VL only) VH: EVQLLESGGGLVQPGGSLRLSCAASGFTFSSSVMSWVRQGPGKGLEWVSAIRGSGVYTYYADSVKGRFTISRDNSKNTLYLQMNSLRAEDTAVYYCAKKYSYYYYYMDVWGKGTTVTVSS VL: PYELTQPLSVSVALGQTARITCGGNNIGSKDVHWYQQKPGQAPVLVIYRDSNRPSGIPERFSGSNSGNTATLTISRAQAGDEADYYCQVWDSSTAVFGGGTQLTAL",,,no binding (tested: FOI ≥10 = positive; 25 nM),no binding (tested: FOI ≥10 = positive; 25 nM)
256,247,"mAb 303 (antibody, V domains shown, VH and VL only) VH: EVHLLESGGGLVQPGGSLRLSCAASGFTFSSYAMNWVRQAPGKGLEWISIISGGRRSGITYYAASVKGRFTISRDNSKNTLDLQMNSLRAEDTAVYYCAKMYNYYYYYIDVWGKGTTVTVSS VL: SYELTQPLSVSVALGQTARITCGGNNIGSKDVHWYQQKPGQAPVLVIYRDSNRPSGIPERFSGSNSGNTATLTISRAQAGDEADYYCQVWDSNTAVFGGGTQLTAL",,,no binding (tested: FOI ≥10 = positive; 25 nM),
183,167,"mAb 296 (antibody, V domains shown, VH and VL only) VH: EVQLLESGGGLVQPGGSLRLSCAASGFTFSSYAMSWVRQAPGKGLEWVSAISGSGGTTYYTDSVKGRFTISRDNSKNTLYLQMNSLRAEDTAVYYCAKKYSYYYYYMDVWGKGTTVTVSS VL: SYELTQPLSVSVALGQTARITCGGNNIGSKNVHWYQQKPGQAPVLVIYRDSNRPSGIPERFSGSNSGNTATLTISRAQAGDEADYYCQVWDSSTAVFGGGTQLTAL",,,no binding (tested: FOI ≥10 = positive; 25 nM),
241,253,"mAb 316 (antibody, V domains shown, VH and VL only) VH: EVQLLESGGGLVQPGGSRRLSCAASGFTFRTYAMSWVRQAPGKGLEWVSVINGRGDDTNYADSVKGRFTISRDNSKNILFLQMNSLRAEDTAVYYCAKKYSYYYYYMDVWGKGTTVTVSS VL: SYELTQPLSVSVALGQTARITCGGNNIGSKDVHWYQQKPGQAPVLVIYRDSNRPSGIPERFSGSNSGNTATLTISRAQAGDEADYYCQVWDSRTAVFGGGTQLTAL",,,no binding (tested: FOI ≥10 = positive; 25 nM),
283,253,"mAb 301 (antibody, V domains shown, VH and VL only) VH: EVQLLESGGGLVQPGGSRRLSCAASGFTFSSYAMSWVRQAPGKGLEWVSVISGRGDNTNYADSVKGRFTISRENSKNMLYLQMNSLRAEDTAVYYCAKKYSYYYYYMDVWGKGTTVTVSS VL: SYELTQPLSVSVALGQTARITCGGNNIGSKDVHWYQQKPGQAPVLVIYRDSNRPSGIPERFSGSNSGNTATLTISRAQAGDEADYYCQVWDSRTAVFGGGTQLTAL",,,no binding (tested: FOI ≥10 = positive; 25 nM),
26.7,68,"mAb 300 (antibody, V domains shown, VH and VL only) VH: EVQLLESGGGLVQPGGSLRLSCAASGFTFSRYAMSWVRQAPGRGLEWVSTISGSGGRTYYVDSVKGRFTISRDNSKNTLYLQMNSLRAEDTAVYYCAKMFSYYYYYMDVWGKGTTVTVSS VL: EIVMTQSPATLSLSPGKRATLSCRASQSVSTTYLSWYLQKPGQAPRLLIYGASTRATGIPARFSGSGSGTDFTLTISSLQPEDFAVYYCQQDYNLPPYTFGQGTKLEIK",,,no binding (tested: FOI ≥10 = positive; 25 nM),
,,"mAb 282 (antibody, V domains shown, VH/VL only) VH: QVQLVQSETEVKKPGASVRVSCKASGYTFTGYYVHWVRQAPGQGLEWMGWINPKSGRTSYSQKFQDRVTMTRDTSISTVYMELSRLRSDDTAVYYCARILELIFDYWGQGTLVTVSS VL: EIVLTQSPDFQSVTPKEKVTITCRASQSIGSSLHWYQQKPDQSPKLLIKYASQSFSGVPSRFSGSGSGTDFTLTINSLEAEDAATYYCHQSSSLPTFGPGTKVDIK",no binding (tested: FOI <10 (FOI >=10 = positive); 25 nM),no binding (tested: FOI <10 (FOI >=10 = positive); 25 nM),,
